From US20190169310A1 (Amgen, published 2019) come the findings set out here.

One test deals with T1, 1-27 CD3-Fc (human).
T1 construct: assigned to this molecule; also called 1-27 CD3ε-Fc; 27 aa huCD3E
The test can be described thus: ELISA, periplasmic scFv on captured 1-27 CD3-Fc. On the technique in general: ELISA stands for enzyme-linked immunosorbent assay.

The target in a further test is T2, human 1-27 CD3ε-EpCAM (human).
T2 construct: also called 1-27 CD3-EpCAM comprising the human 27 mer
T2 chain: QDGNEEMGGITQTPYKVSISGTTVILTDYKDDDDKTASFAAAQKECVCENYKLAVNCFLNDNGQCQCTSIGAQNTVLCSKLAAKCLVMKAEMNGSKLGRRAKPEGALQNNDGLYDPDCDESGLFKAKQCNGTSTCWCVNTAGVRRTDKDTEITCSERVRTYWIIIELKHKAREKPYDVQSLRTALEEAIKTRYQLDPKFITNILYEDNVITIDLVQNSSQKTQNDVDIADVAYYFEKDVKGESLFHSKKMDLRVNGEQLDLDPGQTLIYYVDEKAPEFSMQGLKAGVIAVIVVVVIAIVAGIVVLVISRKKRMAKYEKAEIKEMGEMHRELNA
The test can be described thus: FACS, 293-HEK transfectants.

Another test deals with T3, marmoset 1-27 CD3ε-EpCAM (Callithrix jacchus).
T3 construct: also called 1-27 CD3-EpCAM comprising the marmoset 27 mer
T3 chain: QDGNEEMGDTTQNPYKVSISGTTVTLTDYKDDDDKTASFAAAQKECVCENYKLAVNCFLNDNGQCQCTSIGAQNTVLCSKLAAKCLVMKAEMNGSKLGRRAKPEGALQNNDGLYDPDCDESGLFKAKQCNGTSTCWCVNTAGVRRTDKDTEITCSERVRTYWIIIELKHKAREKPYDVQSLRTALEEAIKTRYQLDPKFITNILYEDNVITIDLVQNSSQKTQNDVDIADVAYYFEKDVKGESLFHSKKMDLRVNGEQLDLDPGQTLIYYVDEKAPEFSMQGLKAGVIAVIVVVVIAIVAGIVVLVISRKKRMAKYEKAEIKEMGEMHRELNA
The test is described as follows: FACS, 293-HEK transfectants. Background: In flow cytometry, cells or beads pass a laser one at a time.

In another test the target is T4, tamarin 1-27 CD3ε-EpCAM (Saguinus oedipus).
T4 construct: also called 1-27 CD3-EpCAM comprising the tamarin 27 mer
T4 chain: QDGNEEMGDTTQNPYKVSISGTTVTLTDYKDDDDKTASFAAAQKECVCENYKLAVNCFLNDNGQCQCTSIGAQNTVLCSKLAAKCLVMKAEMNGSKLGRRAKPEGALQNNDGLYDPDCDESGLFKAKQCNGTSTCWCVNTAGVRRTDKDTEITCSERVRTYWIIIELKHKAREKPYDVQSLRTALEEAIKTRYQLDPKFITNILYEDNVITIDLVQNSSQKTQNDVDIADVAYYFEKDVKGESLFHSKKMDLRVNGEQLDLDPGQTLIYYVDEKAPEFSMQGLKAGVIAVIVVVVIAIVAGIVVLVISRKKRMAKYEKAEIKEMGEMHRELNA
The test can be described thus: FACS, 293-HEK transfectants.

Test [1] concerns the target T5, squirrel monkey 1-27 CD3ε-EpCAM (Saimiri sciureus).
T5 construct: also called 1-27 CD3-EpCAM comprising the squirrel monkey 27 mer
T5 chain: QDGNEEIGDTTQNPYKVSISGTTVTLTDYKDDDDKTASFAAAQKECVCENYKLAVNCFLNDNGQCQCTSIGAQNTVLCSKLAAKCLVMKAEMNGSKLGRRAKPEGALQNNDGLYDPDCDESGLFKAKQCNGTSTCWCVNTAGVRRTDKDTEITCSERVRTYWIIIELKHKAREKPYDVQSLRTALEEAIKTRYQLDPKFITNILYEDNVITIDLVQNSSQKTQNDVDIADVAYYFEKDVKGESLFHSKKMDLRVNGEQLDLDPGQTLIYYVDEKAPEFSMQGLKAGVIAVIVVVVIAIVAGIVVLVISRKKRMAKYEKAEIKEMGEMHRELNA
The test is described as follows: FACS, 293-HEK transfectants.

The target of the next test is T6, swine 1-27 CD3ε-EpCAM (Sus scrofa).
T6 construct: negative control; also called 1-27 CD3-EpCAM comprising the swine 27 mer
T6 chain: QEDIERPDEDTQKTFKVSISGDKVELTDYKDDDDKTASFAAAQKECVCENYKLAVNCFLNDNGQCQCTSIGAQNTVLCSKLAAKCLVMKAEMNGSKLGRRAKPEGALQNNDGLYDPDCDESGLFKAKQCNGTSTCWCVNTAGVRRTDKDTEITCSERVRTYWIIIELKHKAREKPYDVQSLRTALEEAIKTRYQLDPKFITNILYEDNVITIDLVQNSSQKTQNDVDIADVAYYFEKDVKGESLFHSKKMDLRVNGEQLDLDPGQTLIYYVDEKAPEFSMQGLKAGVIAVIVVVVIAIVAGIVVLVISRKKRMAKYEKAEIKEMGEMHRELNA
The test is described as follows: FACS, 293-HEK transfectants.

The next test addresses T7, human PSMA (human, UniProt Q04609 1-750).
T7 construct: whole, on cells; also called prostate-specific membrane antigen
The test is described as follows: Pepscan ELISA, 15-mer peptides of the extracellular domain of human PSMA.

T7 sequence (Q04609 whole entry): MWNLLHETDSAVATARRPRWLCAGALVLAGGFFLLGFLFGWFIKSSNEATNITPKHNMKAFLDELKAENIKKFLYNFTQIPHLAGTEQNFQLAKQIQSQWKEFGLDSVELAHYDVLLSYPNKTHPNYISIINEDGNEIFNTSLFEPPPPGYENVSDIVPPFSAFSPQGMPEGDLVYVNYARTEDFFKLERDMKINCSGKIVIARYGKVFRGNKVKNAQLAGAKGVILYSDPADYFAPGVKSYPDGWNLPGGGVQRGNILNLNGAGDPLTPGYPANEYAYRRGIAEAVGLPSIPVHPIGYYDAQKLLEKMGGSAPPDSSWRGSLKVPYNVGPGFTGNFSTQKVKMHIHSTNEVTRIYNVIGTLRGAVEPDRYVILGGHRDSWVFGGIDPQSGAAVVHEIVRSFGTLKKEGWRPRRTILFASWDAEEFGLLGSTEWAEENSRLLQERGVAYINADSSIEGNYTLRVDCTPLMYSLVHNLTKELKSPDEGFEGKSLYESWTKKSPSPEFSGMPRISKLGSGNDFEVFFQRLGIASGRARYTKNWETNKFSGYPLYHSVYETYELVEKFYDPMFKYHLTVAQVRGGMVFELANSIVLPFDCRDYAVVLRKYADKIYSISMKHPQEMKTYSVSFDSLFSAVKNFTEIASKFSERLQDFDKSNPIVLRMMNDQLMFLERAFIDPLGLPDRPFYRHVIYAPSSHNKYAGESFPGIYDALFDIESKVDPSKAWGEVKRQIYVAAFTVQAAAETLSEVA
Description for human PSMA: These three PSMA BiTE antibodies were subjected to an alternative epitope mapping approach based on peptide scanning (Pepscan). Pepscan uses overlapping peptides of a given protein and analyses antibody binding to immobilized peptides by enzyme-linked immunosorbent assays (ELISAs). The epitope mapping experiments with PSMA BiTE antibodies were performed at the company Pepscan (Lelystad, The Netherlands).
These peptides were coated to ELISA wells in a 384-well plate format. […] To this end 7 ml of crude periplasmic extracts were shipped on dry ice to Pepscan (The Netherlands). Using scFv counterparts in this assay minimized the risk to pick up signals from the second non-PSMA binding specificity of the BiTE antibodies, which may lead to misinterpretation of the PSMA binding epitopes of the target binders. The scFvs were incubated with the peptides and specific binding detected using an anti-His antibody. Binding signals were measured in a 384-well ELISA reader.

B1: A2J HLP (scFv)
scFv: EVQLLESGGGLVQPGGSLKLSCAASGFTFNVYAMNWVRQAPGKGLEWVARIRSKYNNYATYYADSVKKRFTISRDDSKNTAYLQMNNLKTEDTAVYYCVRHGNFGNSYLSWWAYWGQGTLVTVSSGGGGSGGGGSGGGGSELVVTQEPSLTVSPGGTVTLTCRSSTGAVTSGYYPNWVQQKPGQAPRGLIGATDMRPSGTPARFSGSLLGGKAALTLSGVQPEDEAEYYCALWYSNRWVFGGGTKLTVL
notes: crude periplasmic preparation; also called VH-VL-P of A2J
B1: the binding result with 1-27 CD3-Fc is listed as “binds”.

B2: E2M HLP (scFv)
scFv: EVQLLESGGGLVQPGGSLKLSCAASGFTFNGYAMNWVRQAPGKGLEWVARIRSKYNNYATYYADSVKERFTISRDDSKNTAYLQMNNLKTEDTAVYYCVRHRNFGNSYLSWFAYWGQGTLVTVSSGGGGSGGGGSGGGGSELVVTQEPSLTVSPGGTVTLTCRSSTGAVTSGYYPNWVQQKPGQAPRGLIGATDMRPSGTPARFSGSLLGGKAALTLSGVQPEDEAEYYCALWYSNRWVFGGGTKLTVL
notes: crude periplasmic preparation; also called VH-VL-P of E2M
Turning to B2, the binding result with human 1-27 CD3ε-EpCAM is reported as “binds”; with marmoset 1-27 CD3ε-EpCAM it was “binds”; in the test with tamarin 1-27 CD3ε-EpCAM it was “binds”; in test [1], “binds”; with swine 1-27 CD3ε-EpCAM it was “no binding”; in the test with 1-27 CD3-Fc, “binds”.

B3: scFv F1-A10 (scFv)
scFv: EVQLLESGGGLVQPGGSLRLSCAASGFTFSDFFMAWVRQAPGRGLEWVSTIVSDGGSTYYRDSVKGRFTISRDNSKNTLYLQMNSLRAEDTAVYYCARRGNSGYYVMDAWGQGTTVTVSSGGGGSGGGGSGGGGSDIQMTQSPSTLSASVGDRVTITCRASSSVTYMHWYQQKPGKAPKLLIYDTSKVASGVPSRFSGSGSGTEFTLTISSLQPDDFATYYCQQWSRNSPYTFGQGTKLEIK
notes: crude periplasmic extract from E. coli, His-tagged; also called PM F1-A10 HL
For the molecule B3, the binding result in the test with human PSMA is on record as “binds”.

B4: scFv MP 9076-A9 (scFv)
scFv: QVQLVESGGGLVKPGGSLRLSCAASGFTFSDYYMYWVRQAPGKGLEWVAIISDGGYYTYYSDIIKGRFTISRDNAKNNLYLQMNSLRAEDTAVYYCARGFPLLRHGAMDYWGQGTLVTVSSGGGGSGGGGSGGGGSDIQMTQSPSSLSASVGDRVTITCKASQNVDTNVAWYQQKPGQAPKSLIYSASYRYSDVPSRFSGSASGTDFTLTISSVQSEDFATYYCQQYDSYPYTFGGGTKLEIK
notes: crude periplasmic extract from E. coli, His-tagged (His detection); also called PM76A9-HL
Take B4: in the test with human PSMA, the binding result is on record as “binds”.

B5: scFv MP 9076-B10 (scFv)
scFv: QVQLVESGGGLVKPGESLRLSCAASGFTFSDYYMYWVRQAPGKGLEWVAIISDGGYYTYYSDIIKGRFTISRDNAKNSLYLQMNSLKAEDTAVYYCARGFPLLRHGAMDYWGQGTLVTVSSGGGGSGGGGSGGGGSDIQMTQSPSSLSASVGDRVTITCKASQNVDTNVAWYQQKPGQAPKSLIYSASYRYSDVPSRFSGSASGTDFTLTISSVQSEDFATYYCQQYDSYPYTFGGGTKLEIK
notes: crude periplasmic extract from E. coli, His-tagged; 610 read as B10; also called MP 9076-610; MP9076-610 (so in the source)
As to B5, the binding result with human PSMA was “binds”.
